According to paper PMC7334434:

Molecular target: 14-3-3β (UniProt P31946)
Assay: co-IP
Details: reference: wild type

Substance	binding against the reference (sites S142)	binding against the reference (sites S138)
TFEB (from UniProt P19484) S142A	weaker	–
TFEB (from UniProt P19484) S138A	–	weaker
